Measured values from the supplement of paper PMC10899765.

Experiments:
Conditions in all cases: 20 nM; 72 h
[1] = test system: MCF10A; assay: percent viability (nuclei count relative to siNT); higher = more viable cells
Method: (§1)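 After 72 h, cells were fixed and stained with Hoechst and anti-fibrillarin, and nucleoli per nucleus were counted with CellProfiler. Values are plate-adjusted percent effect for the one-nucleolus and 5+ nucleoli phenotypes, normalised to siNT (0%) and to the positive controls siNOL11 or siKIF11 (100%), as the mean of biological triplicates. Percent viability is the nuclei count relative to siNT.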

[2] = test system: MCF10A; assay: 5+ nucleoli phenotype percent effect (relative to siNT 0% and siKIF11 100%); higher = more cells with five or more nucleoli
Method: as §1

[3] = test system: MCF10A; assay: one-nucleolus phenotype percent effect (relative to siNT 0% and siNOL11 100%); higher = more cells with one nucleolus (ribosome biogenesis inhibition)
Method: as §1

Sequence	percent viability [1] [%]	5+ nucleoli phenotype percent effect [2] [%]	one-nucleolus phenotype percent effect [3] [%]
CCAGUGACUGAGCUGGAGCCA [hsa-miR-5190]	31.7	-11.4	29.3
GGGAGGUGUGAUCUCACACUCG [hsa-miR-3689d]	9.66	10.8	24.8
CCGCUUUCUGAGCUGGAC [hsa-miR-4315]	25.2	-27.2	34.8
UCAGGACACUUCUGAACUUGGA [hsa-miR-5000-3p]	53.5	20.7	-10.1
AGGACUGAUCCUCUCGGGCAGG [hsa-miR-4740-5p]	24.1	-14.8	47.7
CCUAGACACCUCCAGUUC [hsa-miR-4305]	39.4	-1.06	-1.35
UAGCCUUCAGAUCUUGGUGUUUU [hsa-miR-3614-3p]	51.5	-23.5	28.6
UCUGGUAAGAGAUUUGGGCAUA [hsa-miR-4490]	54.4	46.4	-25.9
AUGGAGCUGGAACCAGAUCAGGC [hsa-miR-6874-5p]	30.7	-35.8	41.9
UAUGUGCCUUUGGACUACAUCG [hsa-miR-455-5p]	44.7	-19.3	-2.17
UGGAAUGUAAAGAAGUAUGUAU [hsa-miR-1]	38.5	-15.8	8.45
CUAGGUGGGGGGCUUGAAGC [hsa-miR-6802-5p]	33.9	-17	9.83
UCCAGGGAGACAGUGUGUGAG [hsa-miR-7113-5p]	32.5	-2.05	23.5
UGAGAACUGACAAAUGUGGUAGG [hsa-miR-7153-5p]	61.9	14	-18.9
CGAAAACAGCAAUUACCUUUGC [hsa-miR-570-3p]	164	34.2	-22.6
CAAGCUCGCUUCUAUGGGUCUG [hsa-miR-99a-3p]	70	-16.1	23.3
AAACUCUACUUGUCCUUCUGAGU [hsa-miR-618]	46.5	-16.4	10.9
AAUGUUGGAAUCCUCGCUAGAG [hsa-miR-4781-3p]	34.3	12.4	-0.0524
GGGACCAUCCUGCCUGCUGUGG [hsa-miR-3619-3p]	44.4	20.9	-10.4
CAAAUAAUACCACAGUGGGUGU [hsa-miR-5692a]	105	46.5	-17.8

Sequence	percent viability [1] [%]	5+ nucleoli phenotype percent effect [2] [%]	one-nucleolus phenotype percent effect [3] [%]
AUCAAGGAUCUUAAACUUUGCC [hsa-miR-561-5p]	38.8	-9.66	5.64
UCCGAGCCUGGGUCUCCCUCUU [hsa-miR-615-3p]	74.9	-0.788	-6.23
UUAGAACGUUUUAGGGUCAAAU [hsa-miR-5687]	50.5	16.2	-12.4
UGCCGCCCUCUCGCUGCUCUAG [hsa-miR-4632-3p]	64.2	-6.54	7.5
UGCCUGGAACAUAGUAGGGACU [hsa-miR-3116]	23.8	-20.8	2.45
AGCUCUAGAAAGAUUGUUGACC [hsa-miR-6502-5p]	93.5	66.5	-17.4
CCUCUGGGCCCUUCCUCCAG [hsa-miR-326]	20.2	-35.6	56.9
CCAGACUGUGGCUGACCAGAGG [hsa-miR-4494]	96.4	52.3	-29.5
ACUGGCAGAACACUGAAGCAGC [hsa-miR-6868-5p]	26.9	-21.7	34.1
GAUGAGCUCAUUGUAAUAUGAG [hsa-miR-556-5p]	111	8.79	-2.48
UGGUGGUUUACAAAGUAAUUCA [hsa-miR-876-3p]	10.9	-33.4	57.7
ACGGGCAGGGCAGUGCACCCUG [hsa-miR-7112-5p]	31.2	2.37	12.5
UAGUGGAUGAUGCACUCUGUGC [hsa-miR-3681-5p]	50	-13.2	15.8
GUUCAAAUCCAGAUCUAUAAC [hsa-miR-607]	111	34.2	-23.2
UGUGCAAAUCCAUGCAAAACUGA [hsa-miR-19b-3p]	82.4	-2.64	4.13
AGGCACCAGCCAGGCAUUGCUCAGC [hsa-miR-593-5p]	40.2	-0.886	12.3
AGGUUACCCGAGCAACUUUGCAU [hsa-miR-409-5p]	21.8	-20.6	42.3
AAUAGCUCAGAAUGUCAGUUCUG [hsa-miR-7705]	71.2	-21.4	2.1
UGAGGUAGUAGGUUGUAUGGUU [hsa-let-7c]	25.9	56.3	-17.3
UGCCAACCGUCAGAGCCCAGA [hsa-miR-5189-3p]	59.9	-12	-1.7

Sequence	percent viability [1] [%]	5+ nucleoli phenotype percent effect [2] [%]	one-nucleolus phenotype percent effect [3] [%]
AGGUUGUCCGUGGUGAGUUCGCA [hsa-miR-323b-5p]	9.9	57.7	-5.61
UAACACUGUCUGGUAAAGAUGG [hsa-miR-141-3p]	83	44.6	-19.9
AAAAGUAAUCACUGUUUUUGCC [hsa-miR-548y]	73.4	42.1	-21.4
CGAAUCAUUAUUUGCUGCUCUA [hsa-miR-15b-3p]	131	28.9	-19.7
UUUUGCGAUGUGUUCCUAAUAU [hsa-miR-450a-5p]	65.3	13.7	3.94
UCCCUGAGACCCUAACUUGUGA [hsa-miR-125b-5p]	93.8	17.3	-11.8
UCACUCCUCUCCUCCCGUCUU [hsa-miR-483-3p]	45.3	-26.9	16.3
AUUGGGAACAUUUUGCAUGUAU [hsa-miR-450a-1-3p]	95	24.1	-29.7
AGGGUGGGGCUGGAGGUGGGGCU [hsa-miR-6756-5p]	42	-11	3.98
UGGCUUUUAACUUUGAUGGC [hsa-miR-3119]	17.4	-21.8	56.7
UGGGCAGGGGCUUAUUGUAGGAG [hsa-miR-6721-5p]	21.3	22	19.5
CAGGAAGGAUUUAGGGACAGGC [hsa-miR-4476]	23.3	-8.98	14
UUUCCUACCCUACCUGAAGACU [hsa-miR-3685]	36.6	-32.6	16.6
CACACACUGCAAUUACUUUUGC [hsa-miR-603]	60.9	19.5	-5.16
UUGAACUGUUAAGAACCACUGGA [hsa-miR-203b-3p]	36.7	-29.1	29.5
AAAAGUAAUUGCAGUUUUUGC [hsa-miR-548ar-5p]	134	22.8	-24.8
CCUGCGAGUCUCCGGCGGUGG [hsa-miR-6068]	97.4	24.3	-17.2
UCGUGUCUUGUGUUGCAGCCGG [hsa-miR-187-3p]	87.7	-1.49	-7.21
UACAGCCCUGUGAUCUUUCCAG [hsa-miR-6856-3p]	74.9	21	-21
